B1: Indoleamine 2,3-dioxygenase 1 (Mus musculus), P28776 (parent)
chain: MALSKISPTEGSRRILEDHHIDEDVGFALPHPLVELPDAYSPWVLVARNLPVLIENGQLREEVEKLPTLSTDGLRGHRLQRLAHLALGYITMAYVWNRGDDDVRKVLPRNIAVPYCELSEKLGLPPILSYADCVLANWKKKDPNGPMTYENMDILFSFPGGDCDKGFFLVSLLVEIAASPAIKAIPTVSSAVERQDLKALEKALHDIATSLEKAKEIFKRMRDFVDPDTFFHVLRIYLSGWKCSSKLPEGLLYEGVWDTPKMFSGGSAGQSSIFQSLDVLLGIKHEAGKESPAEFLQEMREYMPPAHRNFLFFLESAPPVREFVISRHNEDLTKAYNECVNGLVSVRKFHLAIVDTYIMKPSKKKPTDGDKSEEPSNVESRGTGGTNPMTFLRSVKDTTEKALLSWP

Variants of: B1
Conditions: with ptn6_mouse Ptpn6, P29351

effect of a mutation on the interaction | Variant
decreasing interaction | Y115F;Y253F

— IntAct's records for PubMed 21804557
